According to patent US20200223925A1 (Hoffmann-La Roche, published 2020):

Legend:
[1] = molecular target: T1, human Fibroblast Activation Protein (FAP) (human, UniProt Q12884 1-760); assay: flow cytometry, 3T3-huFAP cells, PE anti-human IgG secondary, MFI
T1 construct: on 3T3-huFAP or MV3 cells in the functional assays; also called huFAP; 3T3-huFAP cells (clone 19)
Experimental: (§1) Binding was assessed by flow cytometry with a FACS Fortessa (BD, Software FACS Diva). Binding curves were obtained using GraphPadPrism6.

human CD28 = molecular target: T2, human CD28 (human, UniProt P10747 19-220); assay: flow cytometry, CHO cells stably overexpressing human CD28, monovalent one-armed IgG from supernatant, PE anti-human IgG secondary, MFI
T2 construct: on primary human T cells in the functional assays; also called huCD28; CHO cells expressing human CD28
Experimental: as §1

Binder | binding result [1] | binding result (human CD28)
Molecule E: FAP(4B9)-CD28(SA) 1+2 format (bispecific antibody, human IgG1, kappa, L234A L235A, bivalent anti-CD28(SA), monovalent anti-FAP (VH on knob chain, VL on hole chain), huIgG1 PG-LALA; also called P1AD9011; FAP-CD28(SA) 1+2) light: not shown heavy 1: not shown heavy 2: QVQLVQSGAEVKKPGASVKVSCKASGYTFTSYYIHWVRQAPGQGLEWIGCIYPGNVNTNYNEKFKDRATLTVDTSISTAYMELSRLRSDDTAVYFCTRSHYGLDWNFDVWGQGTTVTVSSASTKGPSVFPLAPSSKSTSGGTAALGCLVKDYFPEPVTVSWNSGALTSGVHTFPAVLQSSGLYSLSSVVTVPSSSLGTQTYICNVNHKPSNTKVDKKVEPKSCDKTHTCPPCPAPEAAGGPSVFLFPPKPKDTLMISRTPEVTCVVVDVSHEDPEVKFNWYVDGVEVHNAKTKPREEQYNSTYRVVSVLTVLHQDWLNGKEYKCKVSNKALGAPIEKTISKAKGQPREPQVCTLPPSRDELTKNQVSLSCAVKGFYPSDIAVEWESNGQPENNYKTTPPVLDSDGSFFLVSKLTVDKSRWQQGNVFSCSVMHEALHNHYTQKSLSLSPGGGGGSGGGGSGGGGSGGGGSEIVLTQSPGTLSLSPGERATLSCRASQSVTSSYLAWYQQKPGQAPRLLINVGSRRATGIPDRFSGSGSGTDFTLTISRLEPEDFAVYYCQQGIMLPPTFGQGTKVEIK | binds | –
CD28(SA)_variant_28 (antibody, human IgG1, kappa, L234A L235A, monovalent one-armed IgG-like construct; from supernatant; also called P1AE3084) heavy: not shown light: not shown DKTHTCPPCPAPEAAGGPSVFLFPPKPKDTLMISRTPEVTCVVVDVSHEDPEVKFNWYVDGVEVHNAKTKPREEQYNSTYRVVSVLTVLHQDWLNGKEYKCKVSNKALGAPIEKTISKAKGQPREPQVCTLPPSRDELTKNQVSLSCAVKGFYPSDIAVEWESNGQPENNYKTTPPVLDSDGSFFLVSKLTVDKSRWQQGNVFSCSVMHEALHNRFTQKSLSLSP | – | binds
